Assay results reported in publication doi:10.1101/2020.09.09.287375.

Molecular target: human serum albumin (human) (UniProt P02768)
Test: ITC

How did the dH turn out when dalbavancin (peptide) was run?
Its dH is -8.9 kcal/mol.

What about the stoichiometry N of the same substance?
Its stoichiometry N is 0.84.
